According to article PMC7037157, “Parallel Strategy Increases the Thermostability and Activity of Glutamate Decarboxylase” (Molecules, 2020):
Residue numbers refer to the chain shown, from its start. Numbers in names are those of the source.

B1: GAD (glutamate decarboxylase; GAD1407) (Levilactobacillus brevis; N193D) (protein)
chain: MAMLYGKHTHETDETLKPIFGASAERHDLPKYKLAKHALEPREADRLVRDQLLDEGNSRLNLATFCQTYMEPEAVELMKDTLEKNAIDKSEYPRTAEIENRCVNIIANLWHAPEAESFTGTSTIGSSEACMLAGLAMKFAWRKRAKANGLDLTAHQPNIVISAGYQVCWEKFCVYWDIDMHVVPMDDDHMSLDVDHVLDYVDDYTIGIVGIMGITYTGQYDDLARLDAVVERYNRTTKFPVYIHVDAASGGFYTPFIEPELKWDFRLNNVISINASGHKYGLVYPGVGWVIWRDQQYLPKELVFKVSYLGGELPTMAINFSHSASQLIGQYYNFIRFGFDGYREIQEKTHDVARYLAKSLTKLGGFSLINDGHELPLICYELTADSDREWTLYDLSDRLLMKGWQVPTYPLPKNMTDRVIQRIVVRADFGMSMAHDFIDDLTQAIHDLDQAHIVFHSDPQPKKYGFTH
notes: pET28a(+)-GAD1407, expressed in E. coli BL21(DE3), Ni-NTA purified (His tag)
B2: GAD (glutamate decarboxylase; GAD1407) (Levilactobacillus brevis; S325A) (protein)
chain: B1 chain with D193N, S325A
notes: as for B1
B3: GAD (glutamate decarboxylase; GAD1407) (Levilactobacillus brevis; D203E) (protein)
chain: B1 chain with D193N, D203E
notes: as for B1
B4: GAD (glutamate decarboxylase; GAD1407) (Levilactobacillus brevis) (protein)
chain: B1 chain with D193N
notes: as for B1

Substrate: N[C@@H](CCC(=O)O)C(=O)O
Test: initial rates; GABA dansylated, HPLC
Type: biochemical, Levilactobacillus brevis
Details: 0.2 mol/L HAc-NaAc buffer, pH 4.8, 10-100 mmol/L L-glutamate, standard assay 48 °C, 40 μmol/L PLP
Text: initial rates; GABA dansylated, HPLC on GAD (glutamate decarboxylase; GAD1407)

Protein | Km [mM] | kcat [s⁻¹] | kcat/Km [M⁻¹ s⁻¹]
B1 | 34.35 | 138 | 4000
B2 | 42.39 | 176 | 4160
B3 | 26.60 | 40.2 | 1510
B4 | 39.72 | 102 | 2570
